Laboratory results: US9114104B2, “Proteinase K inhibitors, methods and compositions therefor” (Life Technologies Corporation, priority 2008, dated 2015)
Several values for one entry are separate records, joined by “and”; a condition that tells them apart may be missing. Equal entries are not always repeated.

Key:
Type in all cases: biochemical
proteinase K [1] = biological target: T1, proteinase K (Parengyodontium album, UniProt P06873); assay: Direct assay: residual proteinase K activity on BSA substrate, Protein 80 Bioanalyzer chip; conditions: FIG. 2
Method: A direct assay for inhibition of proteinase K activity by MeOSuc-AAPF-CH2Cl (SEQ ID NO:5) was carried out using bovine serum albumin (BSA) as substrate and analyzing products using each Bioanalyzer chips and precast protein gels. Such direct assays were carried out to separate inhibition of proteinase K by a test inhibitor from any effects the stopped mixture may have on an RT-PCR reaction.
The reaction mixtures included the proteinase K solution (50 μL, 100 μg/ml) mixed with 5 μL of stop solution having varying amounts of tetrapeptide, MeOSuc-AAPF-CH2Cl (SEQ ID NO:5), as for Example 2. Incubation was for 10 min at room temperature. To assay for proteinase K activity, ultrapure BSA (12 μL of 50 mg/ml) was added to each sample and the samples were held for 10 min at room temperature. Resultant mixtures were heated for 30 min at 95° C. and analyzed using a Protein 80 Bioanalyzer chip (2100 Bioanalyzer, Agilent, Santa Clara, Calif.). The Bioanalyzer protein gel data is provided in FIG. 2, in which intact Ultrapure BSA (Applied Biosystems) is at about 70 kDa, and proteinase K is at about 35 kDa. The lanes of FIG. 2 are labeled as follows from left to right: Ladder; BSA only; No BSA (proteinase K only); MeOSuc-AAPF-CH2Cl (SEQ ID NO:5) in the stopped mixture at 1 mM, 0.75 mM, 0.5 mM, 0.25 mM, 0.125 mM, and 0 mM.

proteinase K [2] = biological target: T1, proteinase K; assay: Direct assay: residual proteinase K activity on BSA substrate, precast SDS protein gel
Method: For the precast SDS denaturing protein gel analysis data of FIG. 3, proteinase K (50 μl of 100 μg/ml) lysis mixture without DNase (as for Example 2) was mixed with 5 μl of stop solution with varying amounts of MeOSuc-AAPF-CH2Cl (SEQ ID NO:5) and incubated for 10 min at room temperature. Ultrapure BSA (10 μl of 5 mg/ml, Applied Biosystems) was added to each sample and the samples were held for 10 min at room temperature. The reaction mixture was heated for 30 min at 95° C. and analyzed using precast protein gels (BIO-RAD, Hercules, Calif.). From the 65 μl of total reaction mixture, 10 μl reaction mixture was mixed with 5 μl of gel loading dye and further heated at 95° C. for 5 min. Then, the reactions were kept on ice for 2 min and loaded on the gel. Control reactions, with and without BSA, were also carried out. […]
The precast protein gel was run at 120 V for 1 h using 1× Tris/glycine/SDS buffer (BIO-RAD, Hercules, Calif.). […] The gel was analyzed using AlphaEase™ FC software (Alpha Innotech, San Leandro, Calif.). […]
Proteinase K (50 μl of 100 μg/ml) lysis mixture without DNase (as for Example 2) was mixed with 5 μl of stop solution with varying amounts of MeOSuc-AAAPL-CH2Cl (SEQ ID NO:7) and incubated for 10 min at room temperature. […] The reaction mixture was heated for 30 min at 95° C. and analyzed using precast protein gels (BIO-RAD, Hercules, Calif.). […]

proteinase K [3] = biological target: T1, proteinase K; assay: Indirect linked assay: proteinase K inhibition read out by reverse transcriptase real time PCR of Xeno RNA template (Cells-to-CT kit); conditions: for lowest concentration in the stopped mixture with inhibitory activity for proteinase K: Example 2, FIG. 1, tested 1 mM to 0.05 mM in stopped mixture; for proteinase K inhibitory activity: all concentrations tested; for Ct (cycle threshold): all concentrations tested (1 mM to 0.05 mM), no Xeno RNA detected
Text: The present example provides for inhibition of proteinase K in the context of preparing samples for nucleic acid detection. Said preparation of samples is described by pending U.S. patent application Ser. No. 12/122,274 filed May 16, 2008 entitled “Sample Preparation for In Situ Nucleic Acid Analysis, Methods and Compositions Therefor,” hereby incorporated by reference in its entirety. Embodiments of said patent application provide a process for preparing a sample containing RNA for in situ analysis of RNA or a surrogate thereof. In some embodiments, the process comprises contacting the sample containing RNA with a lysis mixture comprising a polypeptide having protease activity under conditions and for a time to produce a lysate, and admixing at least a portion of the lysate with a stop mixture that comprises an inhibitor of the polypeptide having protease activity at substantially the same temperature as the contacting step to form a stopped mixture. The resultant stopped mixture is preferably compatible with in situ reverse transcriptase and DNA polymerase reactions.
Methoxysuccinyl tetrapeptide chloromethylketone compounds synthesized as set forth in Example 1 herein were analyzed for inhibitory activity of proteinase K in such stopped mixtures as described below. Functional validation for the nucleic acid detection system using inhibitors of embodiments herein was carried out by measuring mRNA levels in biological samples using the TaqMan® Gene Expression Cells-to-CT™ Kit and the TaqMan® Cells-to-CT™ Control Kit (Applied Biosystems, Foster City, Calif.). MicroAmp® optical 96-well reaction plates were purchased from Applied Biosystems. Disposable reagent reservoirs were purchased from VistaLab Technologies, Inc (Mt. Kisco, N.Y.). Reverse transcription (RT) reactions were performed at 37° C. for 60 min, 95° C. for 5 min, and cooled to 4° C. by using GeneAmp® PCR systems 9700 (Applied Biosystems). Real time PCR was performed by using 7500 Fast Real-Time PCR System. (Applied Biosystems).
The present indirect linked assay measures the amount of inhibition of proteinase K activity by assaying reverse transcriptase real time PCR amplification of a template, which amplification is dependent upon reverse transcriptase activity.
Stop solutions (100 μl) contained the following reagents (10× concentration):
Test inhibitor, 11 mM (final concentration when diluted into stopped mixture is 1 mM). Test inhibitor was also used at concentrations such that, when diluted with a lysis mixture to form a stopped mixture as described below, the final concentration of inhibitor in the stopped mixture was 0.75 mM, 0.5 mM, 0.25 mM, 0.10 mM, 0.05 mM and 0 mM (control).
Proteinase K lysis solution (50 μL (no added DNase)) from the TaqMan® gene expression Cells-to-CT™ kit (Applied Biosystems) was aliquoted into 18 tubes. To the test samples (these are a working equivalent to lysis mixtures in the Cells-to-CT™ workflow), stop solution (5 μL) was added; the tubes were mixed and held for 2 min at room temperature. For the control reactions, 50 μl of proteinase K buffer was mixed with 5 μl of stop mix without inhibitor and the resulting reaction mixture was heated at 95° C. for 10 min to thermally inactivate the proteinase K reaction. Next, reverse transcription reagents were prepared, i.e. 15 μL 2×RT buffer, and 1.5 μL of 20×RT enzyme mix, were aliquoted and mixed in the wells of a 96 well plate. To this RT solution, 13.5 μL of each proteinase K containing stopped mixture was added and the solution was mixed well. The resulting mixtures were incubated at room temperature for 1 hr for residual proteinase K activity to degrade the RT enzyme. After 1 hr incubation at room temperature, 1 μL of Xeno™ RNA Control template (Applied Biosystems P/N 4386995 diluted to 25,000 copies/μL in 10 ng/μL poly A) was added to all wells except for the no template control wells. […]

proteinase K [4] = biological target: T1, proteinase K; assay: Detection of β-actin RNA in HeLa cell lysates after stop solution (in vitro validation); conditions: FIG. 6; ~10,000 HeLa cells lysed, β-actin RT-PCR
Method: HeLa cells (˜10,000 cells) were lysed in 50 μl lysis solution for 5 minutes at room temperature. Stop solution (5 μl) was then added; the lysate-stop solution was mixed, and incubated for 2 minutes at room temperature. A volume of 10 μl of stopped lysate was added to a 50 μl RT reaction followed by addition of 4 μl of RT reaction into a 20 μl PCR reaction using the β-actin primers/probe of the TaqMan® Gene Expression Cells-to-CT™ Kit (Applied Biosystems).

T1 sequence (P06873 106-384): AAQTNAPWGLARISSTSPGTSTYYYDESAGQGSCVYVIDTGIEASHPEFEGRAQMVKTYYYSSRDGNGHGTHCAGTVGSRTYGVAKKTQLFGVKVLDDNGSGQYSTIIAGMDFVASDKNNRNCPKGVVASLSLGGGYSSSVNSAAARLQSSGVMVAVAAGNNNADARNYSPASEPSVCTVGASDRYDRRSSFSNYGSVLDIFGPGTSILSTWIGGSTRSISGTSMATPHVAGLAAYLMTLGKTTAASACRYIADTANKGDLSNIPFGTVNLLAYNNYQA

methoxysuccinyl-AAPF-chloromethyl ketone (HELM PEPTIDE1{[COC(=O)CCC(=O)[*:2]].A.A.P.F.[ClC[*:1]]}$$$$V2.0; SMILES COC(=O)CCC(=O)N[C@@H](C)C(=O)N[C@@H](C)C(=O)N1CCC[C@H]1C(=O)N[C@@H](Cc1ccccc1)C(=O)CCl) [MeOSuc-AAPF-CH2Cl]
lowest concentration capable of inhibiting proteinase K (proteinase K [1]; 10 min incubation with proteinase K (100 μg/ml) before BSA): 0.125 mM
concentration capable of inhibiting proteinase K when incubated for a longer period prior to BSA (proteinase K [1]; longer incubation with proteinase K before addition of BSA substrate): < 0.125 mM
inhibiting concentration relative to MeOSuc-AAPV-CH2Cl (proteinase K [2]; FIG. 3, compare lanes at 0.5 mM and 0.25 mM): at least half that of MeOSuc-AAPV-CH2Cl
lowest concentration in the stopped mixture with inhibitory activity for proteinase K (proteinase K [3]; listed as MeOSuc-AlaAlaProPhe-CH2Cl): 0.05 mM
average Ct (cycle threshold) (proteinase K [3]; FIG. 1, 0.05 mM inhibitor): about 30

methoxysuccinyl-APAV-chloromethyl ketone (HELM PEPTIDE1{[COC(=O)CCC(=O)[*:2]].A.P.A.V.[ClC[*:1]]}$$$$V2.0; SMILES COC(=O)CCC(=O)N[C@@H](C)C(=O)N1CCC[C@H]1C(=O)N[C@@H](C)C(=O)N[C@H](C(=O)CCl)C(C)C) [MeOSuc-APAV-CH2Cl]
proteinase K inhibitory activity (proteinase K [3]; FIG. 1): inactive at all concentrations tested
Ct (cycle threshold) (proteinase K [3]; FIG. 1): 40

MeOSuc-AlaAlaAlaProPhe-CH2Cl (AAAPF; HELM PEPTIDE1{[COC(=O)CCC(=O)[*:2]].A.A.A.P.F.[ClC[*:1]]}$$$$V2.0; SMILES COC(=O)CCC(=O)N[C@@H](C)C(=O)N[C@@H](C)C(=O)N[C@@H](C)C(=O)N1CCC[C@H]1C(=O)N[C@@H](Cc1ccccc1)C(=O)CCl) [MeOSuc-AAAPF-CH2Cl]
concentration required to achieve the same level of inhibition as MeOSuc-AAPF-CH2Cl at 0.05 mM (proteinase K [3]; FIG. 5 compared to FIG. 1): 0.1 mM
concentration providing effective inhibition of proteinase K (proteinase K [4]): about 0.1 mM

methoxysuccinyl-APAF-chloromethyl ketone (HELM PEPTIDE1{[COC(=O)CCC(=O)[*:2]].A.P.A.F.[ClC[*:1]]}$$$$V2.0; SMILES COC(=O)CCC(=O)N[C@@H](C)C(=O)N1CCC[C@H]1C(=O)N[C@@H](C)C(=O)N[C@@H](Cc1ccccc1)C(=O)CCl) [MeOSuc-APAF-CH2Cl]
proteinase K inhibitory activity (proteinase K [3]; FIG. 1): inactive at all concentrations tested
Ct (cycle threshold) (proteinase K [3]; FIG. 1): 40

methoxysuccinyl-APAL-chloromethyl ketone (HELM PEPTIDE1{[COC(=O)CCC(=O)[*:2]].A.P.A.L.[ClC[*:1]]}$$$$V2.0; SMILES COC(=O)CCC(=O)N[C@@H](C)C(=O)N1CCC[C@H]1C(=O)N[C@@H](C)C(=O)N[C@@H](CC(C)C)C(=O)CCl) [MeOSuc-APAL-CH2Cl]
lowest concentration in the stopped mixture with inhibitory activity for proteinase K (proteinase K [3]): about 0.5 mM

MeOSuc-AlaAlaAlaProVal-CH2Cl (AAAPV; HELM PEPTIDE1{[COC(=O)CCC(=O)[*:2]].A.A.A.P.V.[ClC[*:1]]}$$$$V2.0; SMILES COC(=O)CCC(=O)N[C@@H](C)C(=O)N[C@@H](C)C(=O)N[C@@H](C)C(=O)N1CCC[C@H]1C(=O)N[C@H](C(=O)CCl)C(C)C) [MeOSuc-AAAPV-CH2Cl]
concentration required to achieve the same level of inhibition as MeOSuc-AAPV-CH2Cl at 0.25 mM (proteinase K [3]; FIG. 5): 0.75 mM
concentration providing effective inhibition of proteinase K (proteinase K [4]): 0.5 mM

methoxysuccinyl-AAPL-chloromethyl ketone (HELM PEPTIDE1{[COC(=O)CCC(=O)[*:2]].A.A.P.L.[ClC[*:1]]}$$$$V2.0; SMILES COC(=O)CCC(=O)N[C@@H](C)C(=O)N[C@@H](C)C(=O)N1CCC[C@H]1C(=O)N[C@@H](CC(C)C)C(=O)CCl) [MeOSuc-AAPL-CH2Cl]
concentration providing effective inhibition of proteinase K (proteinase K [4]): about 0.1 mM

methoxysuccinyl-AAAPL-chloromethyl ketone (HELM PEPTIDE1{[COC(=O)CCC(=O)[*:2]].A.A.A.P.L.[ClC[*:1]]}$$$$V2.0; SMILES COC(=O)CCC(=O)N[C@@H](C)C(=O)N[C@@H](C)C(=O)N[C@@H](C)C(=O)N1CCC[C@H]1C(=O)N[C@@H](CC(C)C)C(=O)CCl) [MeOSuc-AAAPL-CH2Cl]
lowest concentration capable of inhibiting proteinase K (BSA present in gel lane) (proteinase K [2]; FIG. 7, tested 1 mM to 0.05 mM in stopped mixture): 0.1 mM and 0.10 mM
lowest concentration in the stopped mixture inhibitory for proteinase K activity (proteinase K [3]; Example 6, FIG. 5, tested 1 mM to 0.05 mM): about 0.05 mM
concentration providing effective inhibition of proteinase K (proteinase K [4]): about 0.1 mM
